From the supplement of paper PMC5949888

System: Saccharomyces cerevisiae PS128 hsf1 delta, HSF1(1-493) fusion
Experiment: growth estimate (transactivation domain function in HSF1 fusion, heat-shock survival) (a.u. (slope of normalised read count over time)); higher = stronger growth at 37°C, i.e. more transactivation activity
Conditions: library: design library
Summary of the method: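 Transactivation-domain oligos were designed and fused to a truncated yeast HSF1 (amino acids 1–493), then expressed in a yeast strain lacking hsf1. Replica plating onto –trp 5-FOA plates was followed by incubation at 30°C or 37°C for 0, 2, 4, 6 and 8 days. Inserts were amplified by PCR and sequenced on an Illumina MiSeq as six barcoded replicates from a single experiment. The growth estimate is the slope of a robust linear fit over time of read counts normalised to sample totals and to starting count.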

| Sequence | growth estimate |
| --- | --- |
| DRDLDMLGDFDLDMLG | 0.301 |
| DRLSWIIELLEKDG | < -0.25 |
| EADDEFSLWDSML | 0.306 |
| EANDLLDLDFILSN | 0.0838 |
| EDADEFSLWDSML | 0.354 |
| EDAYSILWSDVY | -0.234 |
| EDDAEFSLWDSML | 0.0227 |
| EDDDAFSLWDSML | 0.237 |
| EDDDEASLWDSML | < -0.25 |
| EDDDEFALWDSML | 0.128 |
| EDDDEFGLWDSML | 0.402 |
| EDDDEFKLWDSML | 0.0998 |
| EDDDEFPLWDSML | 0.199 |
| EDDDEFRLWDSML | -0.0562 |
| EDDDEFSAWDSML | -0.0271 |
| EDDDEFSGWDSML | 0.0815 |
| EDDDEFSKWDSML | -0.228 |
| EDDDEFSLADSML | -0.236 |
| EDDDEFSLGDSML | < -0.25 |
| EDDDEFSLKDSML | < -0.25 |
| EDDDEFSLPDSML | -0.126 |
| EDDDEFSLRDSML | -0.248 |
| EDDDEFSLWASML | 2.21 |
| EDDDEFSLWDGML | 0.875 |
| EDDDEFSLWDKML | -0.201 |

| Sequence | growth estimate |
| --- | --- |
| EDDDEFSLWDPML | 3.13 |
| EDDDEFSLWDRML | -0.15 |
| EDDDEFSLWDSAL | < -0.25 |
| EDDDEFSLWDSGL | -0.19 |
| EDDDEFSLWDSKL | < -0.25 |
| EDDDEFSLWDSMA | -0.238 |
| EDDDEFSLWDSMG | -0.226 |
| EDDDEFSLWDSMK | < -0.25 |
| EDDDEFSLWDSML | 1.95 |
| EDDDEFSLWDSMP | -0.236 |
| EDDDEFSLWDSMR | -0.239 |
| EDDDEFSLWDSPL | 0.011 |
| EDDDEFSLWGSML | 1.19 |
| EDDDEFSLWKSML | < -0.25 |
| EDDDEFSLWPSML | -0.166 |
| EDDDEFSLWRSML | -0.116 |
| EDDDEFSPWDSML | -0.228 |
| EDDDEFSRWDSML | -0.0194 |
| EDDDEGSLWDSML | < -0.25 |
| EDDDEKSLWDSML | -0.0523 |
| EDDDEPSLWDSML | 0.0815 |
| EDDDERSLWDSML | < -0.25 |
| EDDDGFSLWDSML | 0.241 |
| EDDDPFSLWDSML | 2.41 |
| EDDDRFSLWDSML | -0.141 |

| Sequence | growth estimate |
| --- | --- |
| EDDGEFSLWDSML | 0.47 |
| EDDKEFSLWDSML | -0.135 |
| EDDPEFSLWDSML | 1.77 |
| EDDREFSLWDSML | -0.175 |
| EDGDEFSLWDSML | 0.533 |
| EDGYSILWSDVY | -0.236 |
| EDKDEFSLWDSML | -0.0707 |
| EDLASILWSDVY | -0.161 |
| EDLGSILWSDVY | -0.0522 |
| EDLKSILWSDVY | < -0.25 |
| EDLPSILWSDVY | < -0.25 |
| EDLRSILWSDVY | < -0.25 |
| EDLYAILWSDVY | -0.11 |
| EDLYGILWSDVY | 0.0695 |
| EDLYKILWSDVY | -0.0738 |
| EDLYPILWSDVY | < -0.25 |
| EDLYSALWSDVY | 0.125 |
| EDLYSGLWSDVY | -0.186 |
| EDLYSIAWSDVY | < -0.25 |
| EDLYSIGWSDVY | -0.212 |
| EDLYSIKWSDVY | -0.245 |
| EDLYSILASDVY | -0.238 |
| EDLYSILGSDVY | < -0.25 |
| EDLYSILKSDVY | < -0.25 |
| EDLYSILWADVY | -0.181 |

| Sequence | growth estimate |
| --- | --- |
| EDLYSILWGDVY | -0.152 |
| EDLYSILWKDVY | < -0.25 |
| EDLYSILWPDVY | 1.01 |
| EDLYSILWRDVY | -0.193 |
| EDLYSILWSAVY | -0.107 |
| EDLYSILWSDAY | 0.452 |
| EDLYSILWSDGY | 0.303 |
| EDLYSILWSDKY | -0.125 |
| EDLYSILWSDRY | -0.0848 |
| EDLYSILWSDVA | 0.126 |
| EDLYSILWSDVG | -0.0353 |
| EDLYSILWSDVK | 0.0539 |
| EDLYSILWSDVP | 0.204 |
| EDLYSILWSDVY | 0.971 |
| EDLYSILWSGVY | -0.0514 |
| EDLYSILWSPVY | -0.241 |
| EDLYSILWSRVY | -0.0908 |
| EDLYSIPWSDVY | -0.196 |
| EDLYSIRWSDVY | -0.219 |
| EDLYSPLWSDVY | < -0.25 |
| EDPDEFSLWDSML | 1.36 |
| EDPYSILWSDVY | 0.731 |
| EDRDEFSLWDSML | 0.0908 |
| EDRYSILWSDVY | -0.176 |
| EFADLLDLDFILSN | 0.75 |
